Data from paper PMC12636746, “Structural Basis for TRF2-RAP1 Recruitment by EBNA1 at the EBV origin of replication” (Research Square, 2025).

B1: EBNA1 DNA binding domain (DBD) aa 401–607 (domain or fragment)
chain: GRRPFFHPVGEADYFEYHQEGGPDGEPDVPPGAIEQGPADDPGEGPSTGPRGQGDGGRRKKGGWFGKHRGQGGSNPKFENIAEGLRALLARSHVERTTDEGTWVAGVFVYGGSKTSLYNLRRGTALAIPQCRLTPLSRLPFGMAPGPGPQPGPLRESIVCYFMVFLQTHIFAEVLKDAIKDLVMTKPAPTCNIRVTVCSFDDGVDLP
notes: also called EBNA1 DBD; EBNA1(401–607); source: E. coli, autoinduction medium, purified (Ni-NTA, Superdex 75); not shown: His6-SUMO, N-terminal, cleaved
B2: pre-assembled full length TRF2/Rap1 complex (complex)
chain 1: MAAGAGTAGPASGPGVVRDPAASQPRKRPGREGGEGARRSDTMAGGGGSSDGSGRAAGRRASRSSGRARRGRHEPGLGGPAERGAGEARLEEAVNRWVLKFYFHEALRAFRGSRYGDFRQIRDIMQALLVRPLGKEHTVSRLLRVMQCLSRIEEGENLDCSFDMEAELTPLESAINVLEMIKTEFTLTEAVVESSRKLVKEAAVIICIKNKEFEKASKILKKHMSKDPTTQKLRNDLLNIIREKNLAHPVIQNFSYETFQQKMLRFLESHLDDAEPYLLTMAKKALKSESAASSTGKEDKQPAPGPVEKPPREPARQLRNPPTTIGMMTLKAAFKTLSGAQDSEAAFAKLDQKDLVLPTQALPASPALKNKRPRKDENESSAPADGEGGSELQPKNKRMTISRLVLEEDSQSTEPSAGLNSSQEAASAPPSKPTVLNQPLPGEKNPKVPKGKWNSSNGVEEKETWVEEDELFQVQAAPDEDSTTNITKKQKWTVEESEWVKAGVQKYGEGNWAAISKNYPFVNRTAVMIKDRWRTMKRLGMN
chain 2: MAEAMDLGKDPNGPTHSSTLFVRDDGSSMSFYVRPSPAKRRLSTLILHGGGTVCRVQEPGAVLLAQPGEALAEASGDFISTQYILDCVERNERLELEAYRLGPASAADTGSEAKPGALAEGAAEPEPQRHAGRIAFTDADDVAILTYVKENARSPSSVTGNALWKAMEKSSLTQHSWQSLKDRYLKHLRGQEHKYLLGDAPVSPSSQKLKRKAEEDPEAADSGEPQNKRTPDLPEEEYVKEEIQENEEAVKKMLVEATREFEEVVVDESPPDFEIHITMCDDDPPTPEEDSETQPDEEEEEEEEKVSQPEVGAAIKIIRQLMEKFNLDLSTVTQAFLKNSGELEATSAFLASGQRADGYPIWSRQDDIDLQKDDEDTREALVKKFGAQNVARRIEFRKK
notes: source: E. coli, each protein purified; complex pre-assembled and purified by glycerol gradient; not shown: His6-SUMO, N-terminal, cleaved
B3: TRF2 homodimerization domain (TRFH), residues 85–287 of TRF2 (domain or fragment, UniProt Q15554 85-287, looked up)
chain: AGEARLEEAVNRWVLKFYFHEALRAFRGSRYGDFRQIRDIMQALLVRPLGKEHTVSRLLRVMQCLSRIEEGENLDCSFDMEAELTPLESAINVLEMIKTEFTLTEAVVESSRKLVKEAAVIICIKNKEFEKASKILKKHMSKDPTTQKLRNDLLNIIREKNLAHPVIQNFSYETFQQKMLRFLESHLDDAEPYLLTMAKKALK
notes: also called TRFH domain; TRF2 dimerization domain; source: E. coli (all constructs), purified

Tests used:
Settings in all cases: both partners purified
full-length TRF2 = target: T1, full-length TRF2 (UniProt Q15554 1-542); assay: native gel or EMSA; EBNA1 DBD pre-formed on the 60 bp ½DS DNA probe (5 nM, IRD700), TRF2 and then Rap1 added; 10 mM HEPES pH 7.5, 300 mM KCl, 5 mM MgCl2, 1 mM ZnCl2, 5 mM BME, 0.05% NP-40, 5% glycerol; 1.4% agarose gel
T1 construct: also called TERF2; source: E. coli, autoinduction medium, purified (Ni-NTA, Superdex 75); not shown: His6-SUMO, N-terminal, cleaved
T1 sequence (looked up): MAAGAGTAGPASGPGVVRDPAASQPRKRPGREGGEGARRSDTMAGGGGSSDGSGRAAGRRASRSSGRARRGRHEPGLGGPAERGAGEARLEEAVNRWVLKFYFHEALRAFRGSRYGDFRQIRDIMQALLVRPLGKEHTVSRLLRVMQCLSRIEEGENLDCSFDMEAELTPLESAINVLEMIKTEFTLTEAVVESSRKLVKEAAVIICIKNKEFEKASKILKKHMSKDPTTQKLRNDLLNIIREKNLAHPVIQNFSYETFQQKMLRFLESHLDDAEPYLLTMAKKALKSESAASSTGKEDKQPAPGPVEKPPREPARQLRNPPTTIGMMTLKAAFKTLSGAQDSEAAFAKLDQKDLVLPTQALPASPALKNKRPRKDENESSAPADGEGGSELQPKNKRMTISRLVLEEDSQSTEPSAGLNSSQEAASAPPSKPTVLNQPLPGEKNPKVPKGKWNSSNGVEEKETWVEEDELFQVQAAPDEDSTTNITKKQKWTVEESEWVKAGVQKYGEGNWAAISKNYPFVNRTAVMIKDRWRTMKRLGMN

full-length Rap1 = target: T2, full-length Rap1 (human, UniProt Q9NYB0 1-399); assay: as above
T2 construct: also called TERF2IP; source: E. coli, autoinduction medium, purified (Ni-NTA, Superdex 75); not shown: His6-SUMO, N-terminal, cleaved
T2 sequence (looked up): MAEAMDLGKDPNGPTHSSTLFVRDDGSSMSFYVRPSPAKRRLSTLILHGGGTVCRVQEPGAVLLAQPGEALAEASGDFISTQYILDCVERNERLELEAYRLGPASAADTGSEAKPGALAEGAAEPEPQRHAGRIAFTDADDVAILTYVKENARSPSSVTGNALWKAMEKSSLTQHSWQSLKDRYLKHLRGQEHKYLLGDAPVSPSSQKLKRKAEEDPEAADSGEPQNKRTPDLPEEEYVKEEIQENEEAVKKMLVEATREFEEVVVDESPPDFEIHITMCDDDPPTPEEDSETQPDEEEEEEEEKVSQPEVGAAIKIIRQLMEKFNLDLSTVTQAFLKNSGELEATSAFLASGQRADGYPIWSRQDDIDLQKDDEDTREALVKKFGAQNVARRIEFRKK

[1] = target: T3, EBNA1Δ90–325 3x (E495A D499A E500A) (Epstein-Barr virus, UniProt P03211 1-641, Δ90–325 | E495A | D499A | E500A); assay: native gel or EMSA; pre-assembled TRF2-Rap1 complex (glycerol gradient) serially diluted onto pre-assembled ½DS-EBNA1 complex (10X stock 200 nM EBNA1, 50 nM ½DS DNA); binding buffer with 300 mM KCl; 1.4% agarose gel
T3 construct: also called 3x mutant EBNA1; source: E. coli, autoinduction medium, purified (Ni-NTA, Superdex 75); not shown: His6-SUMO, N-terminal, cleaved
T3 sequence: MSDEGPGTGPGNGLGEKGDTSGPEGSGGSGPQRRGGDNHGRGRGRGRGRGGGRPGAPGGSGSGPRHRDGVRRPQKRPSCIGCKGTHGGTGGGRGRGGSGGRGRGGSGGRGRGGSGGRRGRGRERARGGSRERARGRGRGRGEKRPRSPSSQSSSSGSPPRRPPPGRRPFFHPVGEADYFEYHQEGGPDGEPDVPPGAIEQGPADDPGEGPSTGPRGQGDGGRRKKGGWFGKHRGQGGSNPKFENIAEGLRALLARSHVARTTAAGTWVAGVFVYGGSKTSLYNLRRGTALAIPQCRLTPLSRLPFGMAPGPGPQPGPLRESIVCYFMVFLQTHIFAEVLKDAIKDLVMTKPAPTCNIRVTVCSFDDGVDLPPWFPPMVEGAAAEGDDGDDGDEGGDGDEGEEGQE

[2] = target: B1; assay: native gel or EMSA; TRFH domain added to the ½DS-EBNA1 complex; binding buffer lowered to 100 mM KCl, highest TRFH 10 μM (1000-fold excess); under standard conditions only a weak supershift
[3] = target: B3; assay: as above
[4] = target: B2; assay: native gel or EMSA; pre-assembled TRF2-Rap1 complex (glycerol gradient) serially diluted onto pre-assembled ½DS-EBNA1 complex (10X stock 200 nM EBNA1, 50 nM ½DS DNA); binding buffer with 300 mM KCl; 1.4% agarose gel

## B1
full-length TRF2
  binding result: binds
full-length Rap1
  binding result: binds

## B2
[1]
  fold weaker than with WT EBNA1: ~2 fold

## B3
[2]
  binding result: binds

B4: EBNA1 459–607 (domain or fragment)
chain: RKKGGWFGKHRGQGGSNPKFENIAEGLRALLARSHVERTTDEGTWVAGVFVYGGSKTSLYNLRRGTALAIPQCRLTPLSRLPFGMAPGPGPQPGPLRESIVCYFMVFLQTHIFAEVLKDAIKDLVMTKPAPTCNIRVTVCSFDDGVDLP
notes: also called shorter EBNA1 459–607; core structured DBD; source: E. coli (all constructs), purified
[3]
  binding result: binds

B5: EBNA1ΔGA (Δ90–325), wild type (natural protein)
chain: MSDEGPGTGPGNGLGEKGDTSGPEGSGGSGPQRRGGDNHGRGRGRGRGRGGGRPGAPGGSGSGPRHRDGVRRPQKRPSCIGCKGTHGGTGGGRGRGGSGGRGRGGSGGRGRGGSGGRRGRGRERARGGSRERARGRGRGRGEKRPRSPSSQSSSSGSPPRRPPPGRRPFFHPVGEADYFEYHQEGGPDGEPDVPPGAIEQGPADDPGEGPSTGPRGQGDGGRRKKGGWFGKHRGQGGSNPKFENIAEGLRALLARSHVERTTDEGTWVAGVFVYGGSKTSLYNLRRGTALAIPQCRLTPLSRLPFGMAPGPGPQPGPLRESIVCYFMVFLQTHIFAEVLKDAIKDLVMTKPAPTCNIRVTVCSFDDGVDLPPWFPPMVEGAAAEGDDGDDGDEGGDGDEGEEGQE
notes: also called WT EBNA1; "full-length" EBNA1; source: E. coli, autoinduction medium, purified (Ni-NTA, Superdex 75); not shown: His6-SUMO, N-terminal, cleaved
[4]
  binding result: binds
